Reference: publication PMC2683942, “Unc5B Interacts with FLRT3 and Rnd1 to Modulate Cell Adhesion in Xenopus Embryos” (PLoS ONE, 2009)

B1: Unc5D (splice variant of the mouse Unc5D gene) (receptor)
chain: ARGADGSEILPDSIPSAPGTLPHFIEEPEDAYIIKSNPIALRCKARPAMQIFFKCNGEWVHQNEHVSEESLDESSGLKVREVFINVTRQQVEDFHGPEDYWCQCVAWSHLGTSKSRKASVRIAYLRKNFEQDPQGREVPIEGMIVLHCRPPEGVPAAEVEWLKNEEPIDSEQDENIDTRADHNLIIRQARLSDSGNYTCMAANIVAKRRSLSATVVVYVNGGWSSWTEWSACNVRCGRGWQKRSRTCTNPAPLNGGAFCEGMSVQKITCTALCPVDGSWEVWSEWSVCSPECEHLRIRECTAPPPRNGGKFCEGLSQESENCTDGLCILDKKPLHEIKPQSIENASDIALYSGLGAAVVAVAVLVIGVTLYRRSHSDYGVDVIDSSALTGNSLLLNPAMQPDLTVSRTYSGPICLQDPLDKELMTESSLFNPLSDIKVKVQSSFMVSLGVSERAEYHGKNHSGTFPHGNNRGFSTIHPRNKTPYIQNLSSLPTRTELRTTGVFGHLGGRLVMPNTGVSLLIPHGAIPEENSWEIYMSINQGEPSLQSDGSEVLLSPEVTCGPPDMLVTTPFALTIPHCADVSSEHWNIHLKKRTQQGKWEEVMSVEDESTSCYCLLDPFACHVLLDSFGTYALTGEPITDCAVKQLKVAVFGCMSCNSLDYNLRVYCVDNTPCAFQEVISDERHQGGQLLEEPKLLHFKGNTFSLQVSVLDIPPFLWRIKPFTACQEVPFSRVWSSNRQPLHCAFSLERYTPTTTQLSCKICIRQLKGHEQILQVQTSILESERETITFFAQEDSTFPAQTGPKAFKIPYSIRQRICATFDTPNAKGKDWQMLAQKNSINRNLSYFATQSSPSAVILNLWEARHQQDGDLDSLACALEEIGRTHTKLSNITEPQIDDADFNYSRQNGL
B2: soluble alkaline phosphatase-FLRT3 ectodomain fusion protein (AP-FLRT3ΔTM) (domain or fragment, Xenopus, UniProt Q70AK3 29-527, looked up)
chain: KPCPSVCRCDAGFIYCNDRDLTSIPSGIPDDATTLYLQNNQINNAGIPSDLKGLDKVERIYLYRNSLDEFPINLPKNVKELHLQENNIRTITYDALLQIPFIEELHLDDNSVSAVSIEDGAFRDNIFLRLLFLSRNHLSTIPWGLPKTIEELRLDDNRISTISEISLQDLTNLKRLVLDGNLLNNNGLGERVFMNLINLTELSLVRNSLTSPPANLPGTSLRKLYLQENHMNYVPPNSFADLTQLYRLDMSNNNLTALPQGIFDDLDNLTQLFLRNNPWYCGCKMKWVRDWLQSLPSKVNVRGLMCQAPERVRGMTIKDLNKELFDCKDRIGSNTIHVTTTMLNSLLPAQGQWPVPVTKQPEIRPPDINKIFRTTPIPVKKIITIQVKSITTETIYISWKVALPMTALRLSWQLGHSPVFGSITETIVTGDRAEYLLTALEPESPYRICMVPMETGNIYLSDETPVCIETETAPLKMYNPTTTLNREQEKEPYKNSSLP
notes: FLRT3, Xenopus, ectodomain (ΔTM); also called AP-tagged FLRT3ΔTM; source: conditioned medium, concentrated

Legend:
[1] = molecular target: B2; experiment: equilibrium binding of an alkaline phosphatase fusion protein to transfected cells, binding curves and Scatchard analysis; different amounts of concentrated AP-FLRT3ΔTM conditioned medium on transfected cells, 1 h at RT; washed with PBS containing 0.2 M NaCl; cells lysed; AP activity read at 405 nm, normalised to cell number; details: partners not purified
[2] = molecular target: T1, Xenopus Unc5B (Xenopus, UniProt Q8JGT4 31-943); experiment: as above; details: partners not purified
T1 construct: Netrin receptor Unc5B, Xenopus; Constructs are in Text S1; source: HEK293T, transfected, on cells
T1 sequence (Q8JGT4 31-943): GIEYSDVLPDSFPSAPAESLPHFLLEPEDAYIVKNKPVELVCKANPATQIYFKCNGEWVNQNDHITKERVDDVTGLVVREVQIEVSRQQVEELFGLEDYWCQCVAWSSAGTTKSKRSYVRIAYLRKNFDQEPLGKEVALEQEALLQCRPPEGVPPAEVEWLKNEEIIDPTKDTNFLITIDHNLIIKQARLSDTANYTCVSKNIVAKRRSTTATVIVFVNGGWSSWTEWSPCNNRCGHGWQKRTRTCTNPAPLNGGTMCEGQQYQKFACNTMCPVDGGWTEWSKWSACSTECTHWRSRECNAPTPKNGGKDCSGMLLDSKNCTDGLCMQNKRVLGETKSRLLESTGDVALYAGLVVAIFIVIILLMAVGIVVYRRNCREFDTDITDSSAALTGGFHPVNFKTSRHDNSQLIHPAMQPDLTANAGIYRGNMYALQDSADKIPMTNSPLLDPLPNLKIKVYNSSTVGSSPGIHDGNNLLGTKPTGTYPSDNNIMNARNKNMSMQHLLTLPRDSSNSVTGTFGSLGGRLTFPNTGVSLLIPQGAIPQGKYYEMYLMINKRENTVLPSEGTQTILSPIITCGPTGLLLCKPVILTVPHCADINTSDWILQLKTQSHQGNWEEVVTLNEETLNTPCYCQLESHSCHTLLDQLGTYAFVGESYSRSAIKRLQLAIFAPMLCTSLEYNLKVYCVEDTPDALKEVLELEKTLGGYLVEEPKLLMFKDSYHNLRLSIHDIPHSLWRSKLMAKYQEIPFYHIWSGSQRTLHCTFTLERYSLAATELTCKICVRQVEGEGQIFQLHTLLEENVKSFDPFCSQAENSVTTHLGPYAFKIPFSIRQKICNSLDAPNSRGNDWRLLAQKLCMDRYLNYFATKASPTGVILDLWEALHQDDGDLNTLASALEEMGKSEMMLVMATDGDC

Binder | Kd [1] [nM] | Kd [2] [nM]
B1 | 26 | –
B2 | – | 50
